The values below are quoted from earlier work in patent US12194157B2, “Carrier for targeted delivery to a host” (Finncure Oy, priority 2020, dated 2025).

For the data set, the target named is ACE2 (Homo sapiens, UniProt Q9BYF1). Particulars: simulation, ref [8].
Chain of ACE2 (Q9BYF1 18-805): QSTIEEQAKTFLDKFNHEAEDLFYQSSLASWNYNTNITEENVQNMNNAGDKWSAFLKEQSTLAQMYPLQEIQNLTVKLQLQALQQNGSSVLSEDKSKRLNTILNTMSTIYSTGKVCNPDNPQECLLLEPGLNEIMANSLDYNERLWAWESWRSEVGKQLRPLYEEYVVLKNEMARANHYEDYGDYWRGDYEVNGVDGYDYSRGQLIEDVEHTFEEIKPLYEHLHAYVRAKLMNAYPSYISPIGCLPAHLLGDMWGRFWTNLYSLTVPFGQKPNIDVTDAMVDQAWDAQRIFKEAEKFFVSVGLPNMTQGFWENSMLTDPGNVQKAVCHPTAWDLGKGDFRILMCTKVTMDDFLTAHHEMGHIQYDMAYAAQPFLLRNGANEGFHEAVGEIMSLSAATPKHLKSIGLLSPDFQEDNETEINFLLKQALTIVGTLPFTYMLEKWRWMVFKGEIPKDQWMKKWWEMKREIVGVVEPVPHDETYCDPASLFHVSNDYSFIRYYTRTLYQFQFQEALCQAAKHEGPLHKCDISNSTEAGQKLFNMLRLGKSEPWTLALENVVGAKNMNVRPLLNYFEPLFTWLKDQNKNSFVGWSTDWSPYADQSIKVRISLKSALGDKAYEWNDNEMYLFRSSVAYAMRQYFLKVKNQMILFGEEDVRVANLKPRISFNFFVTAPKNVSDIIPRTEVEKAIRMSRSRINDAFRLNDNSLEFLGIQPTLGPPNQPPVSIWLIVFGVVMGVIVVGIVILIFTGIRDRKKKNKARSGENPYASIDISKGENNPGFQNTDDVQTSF

Take “YKYNYL (Potential alternative synthetic hexapeptide variant) [alternative synthetic hexapeptide variant from simulation]”: the “binding affinity towards the ACE2 receptor relative to YKYRYL” value is given as “even stronger binding affinity”.
On to “YKYNYI (Potential alternative synthetic hexapeptide variant) [alternative synthetic hexapeptide variant from simulation]”, for which the “binding affinity towards the ACE2 receptor relative to YKYRYL” value is given as “even stronger binding affinity”.
